Measurements as given in paper PMC4850247.

Legend:
[1] = target: OTUD3 (aa 52-209) (human) (UniProt Q5T2D3)
[2] = target: OTUD2 OTU (aa 147-314) (human) (UniProt Q5VVQ6); assay: covalent labelling with an active site-directed probe (SDS-PAGE, fluorescence scan); 0.1 μM OTUD2 constructs with 1 μM TAMRA-labeled K11-linked diUb-PA, time course up to 60 min, bands quantified
[3] = target: Full-length human OTUD2 (human) (UniProt Q5VVQ6); assay: as above
[4] = target: Full-length human OTUD2 (human) (UniProt Q5VVQ6); assay: covalent labelling with an active site-directed probe (SDS-PAGE, fluorescence scan); 0.2 μM OTUD2 with 2 μM TAMRA-labeled mUb-PA or diUb-PA probes, time course, 30°C, 20 mM Tris-HCl pH 7.5, 150 mM NaCl; bands quantified and fitted by pseudo-first-order one-phase association, plateau forced to that of K11
[5] = target: Full-length human OTUD2 (human) (UniProt Q5VVQ6)

Sequence of UniProt Q5T2D3 (Q5T2D3 52-209): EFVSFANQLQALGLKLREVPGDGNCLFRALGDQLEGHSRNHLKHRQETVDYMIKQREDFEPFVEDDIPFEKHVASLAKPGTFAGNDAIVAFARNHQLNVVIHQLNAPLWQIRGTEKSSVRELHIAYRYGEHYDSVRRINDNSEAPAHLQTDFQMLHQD

Substance | KM of AMC release from diUb-AMC (Michaelis-Menten, 15 nM OTUD3) [1] [µM] | t1/2 of covalent probe labelling [4] [min] | KM of AMC release from diUb-AMC (Michaelis-Menten, 15 nM OTUD2, substrate up to 20 μM) [5] [µM] | further results
K27 triazole-linked diUb-AMC substrate (from UniProt P0CG48 1-76) | 4.7 | – | – | –
TAMRA-labeled K11 triazole-linked diUb-PA probe (from UniProt P0CG48 1-75; P0CG48 1-75) | – | 3.5 | – | t1/2 of covalent probe labelling [2]: 6.8 min; t1/2 of covalent probe labelling [3]: 5.3 min
K33 triazole-linked diUb-AMC substrate (from UniProt P0CG48 1-76) | – | – | 100 | –
TAMRA-labeled K33 triazole-linked diUb-PA probe (from UniProt P0CG48 1-75; P0CG48 1-75) | – | 8.5 | – | –
K11 triazole-linked diUb-AMC substrate (from UniProt P0CG48 1-76) | 3.7 | – | 20 | –
